Data: US20140271675A1 (Eli Lilly, published 2014)

T1: mouse VEGFR1 (Mouse, UniProt P35969 23-759, limits assumed)
T1 construct: also called VEGFR1 Mouse
T1 sequence (looked up): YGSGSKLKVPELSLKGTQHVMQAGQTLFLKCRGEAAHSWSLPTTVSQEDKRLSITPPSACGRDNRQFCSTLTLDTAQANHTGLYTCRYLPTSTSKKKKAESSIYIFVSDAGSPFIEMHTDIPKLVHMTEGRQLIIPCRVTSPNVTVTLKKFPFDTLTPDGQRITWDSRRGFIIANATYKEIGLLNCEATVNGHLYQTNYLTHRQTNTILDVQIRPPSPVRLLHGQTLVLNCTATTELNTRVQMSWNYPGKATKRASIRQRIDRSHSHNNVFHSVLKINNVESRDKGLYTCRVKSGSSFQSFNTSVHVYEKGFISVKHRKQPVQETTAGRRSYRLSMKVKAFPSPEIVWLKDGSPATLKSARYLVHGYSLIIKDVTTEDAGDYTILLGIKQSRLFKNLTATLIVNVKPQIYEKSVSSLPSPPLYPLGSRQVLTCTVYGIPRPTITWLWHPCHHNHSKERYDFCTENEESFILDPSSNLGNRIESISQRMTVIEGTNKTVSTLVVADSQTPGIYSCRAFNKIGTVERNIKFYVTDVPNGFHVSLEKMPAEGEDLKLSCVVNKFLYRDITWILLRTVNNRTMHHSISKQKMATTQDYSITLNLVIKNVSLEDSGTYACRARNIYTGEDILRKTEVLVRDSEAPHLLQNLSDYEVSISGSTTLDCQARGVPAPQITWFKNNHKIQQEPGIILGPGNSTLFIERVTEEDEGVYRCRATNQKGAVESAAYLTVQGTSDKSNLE

T2: mouse VEGFR3 (Mouse, UniProt P35917 25-775, limits assumed)
T2 construct: also called VEGFR3 Mouse
T2 sequence (looked up): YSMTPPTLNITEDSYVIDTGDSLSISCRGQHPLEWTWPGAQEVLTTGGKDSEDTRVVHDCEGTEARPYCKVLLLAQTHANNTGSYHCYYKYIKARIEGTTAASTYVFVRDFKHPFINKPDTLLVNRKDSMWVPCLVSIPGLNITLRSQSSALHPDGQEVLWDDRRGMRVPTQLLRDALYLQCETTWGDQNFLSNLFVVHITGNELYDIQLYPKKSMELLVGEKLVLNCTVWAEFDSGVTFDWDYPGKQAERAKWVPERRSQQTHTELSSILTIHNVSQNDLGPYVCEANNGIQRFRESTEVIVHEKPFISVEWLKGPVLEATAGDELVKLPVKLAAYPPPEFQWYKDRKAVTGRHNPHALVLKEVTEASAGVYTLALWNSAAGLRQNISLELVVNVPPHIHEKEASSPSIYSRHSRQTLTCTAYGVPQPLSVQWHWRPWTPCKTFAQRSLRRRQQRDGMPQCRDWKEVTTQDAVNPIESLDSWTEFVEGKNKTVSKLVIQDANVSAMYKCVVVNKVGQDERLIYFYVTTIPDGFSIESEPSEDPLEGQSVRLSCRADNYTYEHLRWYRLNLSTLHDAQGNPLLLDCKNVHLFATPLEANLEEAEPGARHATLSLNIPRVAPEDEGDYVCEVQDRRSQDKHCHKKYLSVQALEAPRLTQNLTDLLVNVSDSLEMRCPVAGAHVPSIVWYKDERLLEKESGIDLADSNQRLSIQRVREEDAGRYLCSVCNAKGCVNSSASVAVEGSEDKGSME

T3: human VEGFR3 (Human, UniProt P35916 25-776, limits assumed)
T3 construct: also called VEGFR3 Human
T3 sequence (looked up): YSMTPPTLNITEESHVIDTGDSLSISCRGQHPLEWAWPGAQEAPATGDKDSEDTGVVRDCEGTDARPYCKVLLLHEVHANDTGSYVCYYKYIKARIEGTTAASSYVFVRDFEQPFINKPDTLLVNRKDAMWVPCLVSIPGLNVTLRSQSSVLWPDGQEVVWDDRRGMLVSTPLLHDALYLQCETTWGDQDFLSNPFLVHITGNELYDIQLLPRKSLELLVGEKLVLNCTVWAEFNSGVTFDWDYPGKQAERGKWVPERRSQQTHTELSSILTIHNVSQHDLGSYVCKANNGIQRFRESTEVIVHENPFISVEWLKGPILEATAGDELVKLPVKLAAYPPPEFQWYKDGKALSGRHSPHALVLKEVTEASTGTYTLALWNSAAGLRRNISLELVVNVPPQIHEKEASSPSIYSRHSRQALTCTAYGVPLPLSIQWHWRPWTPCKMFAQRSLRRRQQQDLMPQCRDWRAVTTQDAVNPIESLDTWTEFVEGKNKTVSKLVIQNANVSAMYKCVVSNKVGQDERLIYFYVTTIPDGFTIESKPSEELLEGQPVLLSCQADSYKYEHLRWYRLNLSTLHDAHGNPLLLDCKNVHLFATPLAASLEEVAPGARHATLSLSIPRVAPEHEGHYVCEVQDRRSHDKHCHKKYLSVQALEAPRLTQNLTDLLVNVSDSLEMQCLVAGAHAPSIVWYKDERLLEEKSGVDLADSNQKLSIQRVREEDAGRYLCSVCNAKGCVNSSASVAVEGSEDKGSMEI


Tests used:
mouse VEGFR1 [1] = target: T1, mouse VEGFR1; experiment: SPR (Biacore), 25 C, n=1
[2] = target: T4, human VEGFR1 (SPR analyte/ligand) (human, UniProt P17948 27-758, limits assumed); experiment: SPR (Biacore), 25 C
T4 construct: also called VEGFR1 Human; Flt-1
T4 sequence (P17948 27-758 limits assumed): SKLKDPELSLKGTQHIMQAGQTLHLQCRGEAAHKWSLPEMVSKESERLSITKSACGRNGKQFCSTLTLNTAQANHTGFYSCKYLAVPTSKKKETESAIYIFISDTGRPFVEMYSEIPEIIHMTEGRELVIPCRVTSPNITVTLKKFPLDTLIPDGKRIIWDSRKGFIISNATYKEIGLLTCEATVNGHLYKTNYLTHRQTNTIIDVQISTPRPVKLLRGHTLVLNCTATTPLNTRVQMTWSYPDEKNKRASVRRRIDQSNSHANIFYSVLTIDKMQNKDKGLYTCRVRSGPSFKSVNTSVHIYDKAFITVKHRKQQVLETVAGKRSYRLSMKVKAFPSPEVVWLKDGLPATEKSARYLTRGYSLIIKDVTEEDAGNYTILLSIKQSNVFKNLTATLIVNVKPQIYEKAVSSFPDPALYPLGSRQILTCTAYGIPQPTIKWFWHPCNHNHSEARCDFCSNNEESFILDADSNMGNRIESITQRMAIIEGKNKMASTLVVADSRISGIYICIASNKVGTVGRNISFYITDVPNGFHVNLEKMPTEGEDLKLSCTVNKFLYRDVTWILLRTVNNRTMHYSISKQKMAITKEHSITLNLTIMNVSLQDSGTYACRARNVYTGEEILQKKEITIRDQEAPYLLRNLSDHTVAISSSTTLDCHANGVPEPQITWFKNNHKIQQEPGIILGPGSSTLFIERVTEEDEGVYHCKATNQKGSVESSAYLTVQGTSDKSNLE

mouse VEGFR3 = target: T2, mouse VEGFR3; experiment: SPR (Biacore), 25 C
mouse VEGFR2 = target: T5, mouse VEGFR2 (Mouse, UniProt P35918 20-762, limits assumed); experiment: SPR (Biacore), 25 C
T5 construct: also called VEGFR2 Mouse
T5 sequence (P35918 20-762 limits assumed): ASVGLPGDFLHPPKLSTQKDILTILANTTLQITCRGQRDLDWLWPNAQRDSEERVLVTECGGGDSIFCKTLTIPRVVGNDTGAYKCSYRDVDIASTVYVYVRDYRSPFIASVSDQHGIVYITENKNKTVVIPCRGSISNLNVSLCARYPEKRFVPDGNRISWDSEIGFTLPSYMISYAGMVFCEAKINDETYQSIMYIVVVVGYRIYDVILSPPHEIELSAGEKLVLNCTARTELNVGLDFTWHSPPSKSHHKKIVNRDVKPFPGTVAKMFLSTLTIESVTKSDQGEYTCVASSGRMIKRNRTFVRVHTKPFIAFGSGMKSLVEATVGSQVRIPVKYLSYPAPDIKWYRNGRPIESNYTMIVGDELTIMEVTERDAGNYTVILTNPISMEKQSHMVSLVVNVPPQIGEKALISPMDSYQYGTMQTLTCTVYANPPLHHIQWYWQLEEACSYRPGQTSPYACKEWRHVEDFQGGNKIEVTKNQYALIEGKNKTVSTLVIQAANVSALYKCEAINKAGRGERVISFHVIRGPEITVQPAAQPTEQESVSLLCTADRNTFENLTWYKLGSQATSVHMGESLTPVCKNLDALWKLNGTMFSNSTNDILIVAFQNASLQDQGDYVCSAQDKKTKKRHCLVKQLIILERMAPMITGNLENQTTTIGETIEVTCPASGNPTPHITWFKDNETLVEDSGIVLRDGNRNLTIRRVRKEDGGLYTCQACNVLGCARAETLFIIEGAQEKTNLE

human VEGFR2 = target: T6, human VEGFR2 (Human, UniProt P35968 20-764, limits assumed); experiment: SPR (Biacore), 25 C
T6 construct: also called VEGFR2 Human
T6 sequence (P35968 20-764 limits assumed): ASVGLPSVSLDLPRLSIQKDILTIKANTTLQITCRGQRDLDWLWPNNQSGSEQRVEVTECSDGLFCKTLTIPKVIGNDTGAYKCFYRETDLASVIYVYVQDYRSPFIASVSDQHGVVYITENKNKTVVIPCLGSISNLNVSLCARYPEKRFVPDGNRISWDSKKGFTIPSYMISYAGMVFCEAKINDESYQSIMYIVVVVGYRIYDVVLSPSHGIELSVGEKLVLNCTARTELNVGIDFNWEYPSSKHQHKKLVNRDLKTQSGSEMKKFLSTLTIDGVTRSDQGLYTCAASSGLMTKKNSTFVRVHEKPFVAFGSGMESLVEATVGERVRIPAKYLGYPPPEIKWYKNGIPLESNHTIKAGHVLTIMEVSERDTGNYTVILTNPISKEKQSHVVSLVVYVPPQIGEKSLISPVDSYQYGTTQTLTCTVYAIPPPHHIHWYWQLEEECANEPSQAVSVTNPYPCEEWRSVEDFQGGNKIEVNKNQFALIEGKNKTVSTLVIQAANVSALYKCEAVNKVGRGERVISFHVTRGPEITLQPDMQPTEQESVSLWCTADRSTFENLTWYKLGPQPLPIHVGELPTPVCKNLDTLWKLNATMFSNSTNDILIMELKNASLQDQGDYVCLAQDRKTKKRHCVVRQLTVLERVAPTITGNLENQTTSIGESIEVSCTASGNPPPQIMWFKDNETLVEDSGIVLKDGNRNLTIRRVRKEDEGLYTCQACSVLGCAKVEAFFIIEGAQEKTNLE

human VEGFR3 = target: T3, human VEGFR3; experiment: SPR (Biacore), 25 C
mouse VEGFR1 [3] = target: T1, mouse VEGFR1; experiment: SPR (Biacore), 25 C, n=4

Binder | Kd (mouse VEGFR1 [1]) | koff (mouse VEGFR1 [1]) | binding result [2] | binding result (mouse VEGFR3) | binding result (mouse VEGFR2) | binding result (human VEGFR2) | binding result (human VEGFR3) | Kd (mouse VEGFR1 [3]) | koff (mouse VEGFR1 [3])
Antibody III (antibody, also called Ab III; Antibody 3) heavy: QVQLKESGPGLVRPSETLSLTCTVSGFSLSDYSLSWVRRPSGKGPEWLGRLWFDGDTTYNSAFKSRLTISRDTSKDQVFLKMNSLQTDDTGTYYCTRDDRDFDYWGQGVMVTVSSAETTAPSVYPLAPGTALKSNSMVTLGCLVKGYFPEPVTVTWNSGALSSGVHTFPAVLQSGLYTLTSSVTVPSSTWPSQTVTCNVAHPASSTKVDKKIVPRNCGGDCKPCICTGSEVSSVFIFPPKPKDVLTITLTPKVTCVVVDISQDDPEVHFSWFVDDVEVHTAQTRPPEEQFNSTFRSVSELPILHQDWLNGRTFRCKVTSAAFPSPIEKTISKPEGRTQVPHVYTMSPTKEEMTQNEVSITCMVKGFYPPDIYVEWQMNGQPQENYKNTPPTMDTDGSYFLYSKLNVKKEKWQQGNTFTCSVLHEGLHNHHTEKSLSHSPGK light: DIVMTQTPVSMSVSLGGQVSISCRSSQSLVNNNGNTYLSWYIQKPSQSPQLLIYKVSNRVSGISDRFSGSGSGTDFTLKINKIEPDDLGVYYCGQNTQYPLTFGSGTKLEIKRADAAPTVSIFPPSTEQLATGGASVVCLMNNFYPRDISVKWKIDGTERRDGVLDSVTDQDSKDSTYSMSSTLSLTKADYESHNLYTCEVVHKTSSSPVVKSFNRNEC | 0.032 nM | 1.87e-05 s⁻¹ |  |  |  |  |  |  | 
Antibody IV (antibody, mouse IgG1, kappa, also called Ab IV; Antibody 4) heavy: QVQLKESGPGLVRPSETLSLTCTVSGFSLSDYSLSWVRRPSGKGPEWLGRLWFDGDTTYNSAFKSRLTISRDTSKDQVFLKMNSLQTDDTGTYYCTRDDRDFDYWGQGVMVTVSSAKTTPPSVYPLAPGSAAQTNSMVTLGCLVKGYFPEPVTVTWNSGSLSSGVHTFPAVLQSDLYTLSSSVTVPSSTWPSETVTCNVAHPASSTKVDKKIVPRDCGCKPCICTVPEVSSVFIFPPKPKDVLTITLTPKVTCVVVDISKDDPEVQFSWFVDDVEVHTAQTQPREEQFNSTFRSVSELPIMHQDWLNGKEFKCRVNSAAFPAPIEKTISKTKGRPKAPQVYTIPPPKEQMAKDKVSLTCMITDFFPEDITVEWQWNGQPAENYKNTQPIMDTDGSYFVYSKLNVQKSNWEAGNTFTCSVLHEGLHNHHTEKSLSHSPG light: DIVMTQTPVSMSVSLGGQVSISCRSSQSLVNNNGNTYLSWYIQKPSQSPQLLIYKVSNRVSGISDRFSGSGSGTDFTLKINKIEPDDLGVYYCGQNTQYPLTFGSGTKLEIKRADAAPTVSIFPPSSEQLTSGGASVVCFLNNFYPKDINVKWKIDGSERQNGVLNSWTDQDSKDSTYSMSSTLTLTKDEYERHNSYTCEATHKTSTSPIVKSFNRNEC |  |  | no binding (tested: ~200 nM) | no binding (tested: ~200 nM) | no binding (tested: ~200 nM) | no binding (tested: ~200 nM) | no binding (tested: ~200 nM) | ≤ 0.018 nM | < 1e-05 s⁻¹
